Source: publication PMC5897352, “Isolation and characterization of a multifunctional flavonoid glycosyltransferase from Ornithogalum caudatum with glycosidase activity” (Scientific Reports, 2018)

Key:
[1] = substrate: O=[N+]([O-])c1ccccc1O[C@@H]1O[C@H](CO)[C@H](O)[C@H](O)[C@H]1O; experiment: HPLC hydrolysis assay (o-nitrophenol release), Lineweaver-Burk; assay type: biochemical, Albuca bracteata; conditions: no UDP or UDP-sugar, phosphate buffer (pH 6.0 in methods, optimum pH 7), 37 °C
[2] = substrate: O=c1cc(-c2ccccc2)oc2cc(O)cc(O)c12; experiment: HPLC glucosylation assay, Lineweaver-Burk; assay type: biochemical, Albuca bracteata; conditions: 1 mM UDP-Glc fixed, phosphate buffer pH 8.0, 50 °C, apparent Km

B1: OcUGT1 (Albuca bracteata) (protein)
chain: MGSEAHGALHILFFPLMAPGHMLPMVDMAKLFAARGLKPTIFTTPGNVRLIQPSIDNANGSGHQNPIQLFTVPFPSIDGIPDGCENLSSVTQELHVKFFVGLGNLREPFKDSLARLRPDCIVSDMFLPWTADEAAERGMPRLVFHGSNFFTQCAYRSIEHHKVLESLAPGEDTFVIPGLPHRVELRRSTMPDIQTFAPELMDIILQTREAELKSLGTVMNTFYELEPDYADHFCNVMGRRAWNIGPLSLCNKDVADKWRRGNEASITSEFCLNWLDSQEPSSVVYVCFGSLSDFTTAQLREIAAGLEASGRPFVWVVRNHSEEWIPEGLEERVGGKGLIIRGWAPQILILSHVAVGGFLTHCGWNSILEGVSAGLPFVTWPLFADQFYNERLIVDVLKIGVAVGSNEYANKPEERKIIEAAKIEATINELMGDGKDADERREKARALGELAQRAVEKGGSSYRDLDNLISELVEKRSAV
notes: full-length ORF of 1440 bp (479 residues by ORF length)
Km [1]: 6.897 ± 1.995 mM | Km [2]: 0.1506 ± 0.0139 mM
